Experimental data as given in the DeepSol protein solubility set.

assay: soluble on expression in E. coli; label from the status in PepcDB or PDB records

Q: For “MGGSHHHHHHGMASPLLTQQIQDEDDQYSLVASLDNVRNLSTILKAIHFREHATCFATKNGIKVTVENAKCVQANAFIQAGIFQEFKVQEESVTFRINLTVLLDCLSIFGSSPMPGTLTALRMCYQGYGYPLMLFLEEGGVVTVCKITTQEPEETLDFDFCSTNVINKIILQSEGLREAFSELDMTSEVLQITMSPDKPYFRLSTFGNAGSSHLDYPKDSDLMEAFHCNQTQVNRYKISLLKPSTKALVLSCKVSIRTDNRGFLSLQYMIRNEDGQICFVEYYCCPDEEVPESES”, which “soluble on expression in E. coli” value is on record?
A: not soluble

Q: For “MGSDKIHHHHHHMPLDLDTALSSHQPLSLNERKLLDILRRRGAITRATVSAEMDLAQQSVHRLIEELISRGLLRSGERVKNGRGQPSPRIELVNEAVYAIGVSINTDSAVVCVADLGCNVLEQVTLRTPPLSRNSTLDSLAKTIERMLQRNGIETDRVIGMGFAIAGFFLENRQINAPEPLRDWSLIDLQPVLEERFGMPVWLENNATTAAIGESLVGVGAWASNFIYLSFNFGFGAGVVINGKPYFGSHGNAGEITLYNDEESINRPALRYLLEELHQKGVQVDSIEDLRLRFDPNWPGVDTWLKRIQPTLDRLVNALAGLFDPQAVVFGGQLPAELGKRLIAATTFWGTHRYNSPPPRPRLLLSETNGDAAAIGAALVPLKERFFV”, which “soluble on expression in E. coli” value is on record?
A: not soluble

Q: With “MGSDKIHHHHHHMMVLTLKDFEQTYFYKTELIQLCKVYGLPTYGTKAELNKYLTLYLSGTPACDIKVNRKHTTSRNKTKITLETKILGEGFSFNQEARKLFAEYFGKEKFSFKKEMAVIKRQAEHNGETKMTVRDLLERYQEMVGQGNVLRETAEEATYQWNNFVRDFCKSSESQNYHQKLKVAAILWEKVKNSKNDKKFEASLVQKYEKNISNYMNK” as the sequence, how does the “soluble on expression in E. coli” value read?
A: not soluble

Q: For “MAHERAGQLAQPQDLIDIAEVVTAYYTRTPDADNPDQQVAFGTSGHRGSSLDTAFNENHILAITQAIVEYRAQHHIGGPIFIGRDTHALSEPAMISALEVLLAHGIEVLVDDRGRYTPTPAVSHAILAYNAQRSDSSQYSDGIVITPSHNPPRDGGFKYNPPNGGPADTDATDWIADRANTLLREGLVSVKRTSVTGVLDPRAHRHNYMENYIADLPNVVDIDAIRNSGLAIGADPMGGASVDYWGAIAEKHSLNLTVVNPLVDATWRFMTLDTDGKIRMDCSSPDSMASLVHNRTKYDIATGNDADADRHGIVTPDAGLMNPNHYLAVAIDYLFSHRPQWNSSTAVGKTLVSSSMIDRVVADLGRKLVEVPVGFKWFVPGLVDGSVGFGGEESAGASFLRHNGTVWSTDKDGIILDLLASEITAVTGKTPSQRYEELAARFGSPAYARTDAPATREQKAVLKKLSPEQVTATELAGEAITAKLTTAPGNGAAIGGLKVTTENAWFAARPSGTEDKYKIYAESFLGADHLAMVQREAQNLVSDVL”, which “soluble on expression in E. coli” value is on record?
A: not soluble

Q: For “MSLGQDIGFYLGRIDSEMDSWVADPDEALKASNKLFFLNPFQANKVGIKGKANSNPNTQLSGDTGEGKSFAAKLIHLYSSFLKVKTLYIDPKLEMEANYKRVLKEFEEQDVYPEIQKYIRSLSFATLDSTKNENLGVLDPLVFLPKKRAKGLIVSMIGELIKYDSHISFKTELSHQLSLFADRRARGEQVGTLTVLKELYNHSERQDVRDTAESLIEDIKDSILGLVFSDGKNQAVDLNARNVILGVSGLDLPQDDSIVHSDLTLQQRYSLVIMYALGEFVIQFAERDYKEHTLEIVDEAWFLETSAVGRGIFNRMKRLNRRFNNFLYFVSQEIDDSNRGKDEKTAFGSYFCFRNDDSTKVDSILRRLGVQPTEESRKWFDNLSLGQCLYRDSANRVERVTFDGLFPEVKELFKTVENDSLEGHHHHHH”, which “soluble on expression in E. coli” value is on record?
A: soluble

Q: With “MEYREFDFWYYKIGNGDANLTCKMSYNPKSPIFTDFPDTVVHTVLEKLLPAERMVVRNVSKKLRNLFDERYRVIKNVYMQVQDEEAILFFENHEELEKTFSCNGNDGNEKYLEIALEKVAKFTKNHKLEEFEVHFDDEAGEKHRWGLYDDVSDMFKASKAVLNTKKFSIELLRPDDAKAAFSHFKPGNLEDIEIEYFCTGYKYPKYPRCPRYDDDSDDSFEDNMGMYEQLTELAHWQKAKKVKIGVDDSLDFSIEALFHLENFEISLNKFTKNDAIKIRDVLLQTAHFQSGIITFSKDPGGTNMLKVFNPKYSGGENGPIIYKTKDSRFEIGLGYSSIEFKRI” as the sequence, how does the “soluble on expression in E. coli” value read?
A: not soluble

Q: For “DELLALASIYDGDEFRKAESVQGGETRIYLDLPQNFKIFVSGNSNECLQNSGFEYTICFLPPLVLNFELPPDYPSSSPPSFTLSGKWLSPTQLSALCKHLDNLWEEHRGSVVLFAWMQFLKEETLAYLRIRLLTKPERKLSWLLPPLSNN”, which “soluble on expression in E. coli” value is on record?
A: not soluble

Q: Which “soluble on expression in E. coli” value does the source give for “LESKNMTWYRMLLVTPVRQGEKVRKFFLHAFHSFEYRALSSGTEEEGLVLTVNDSERTEEIFSCCEKMKAFCKNFLGETPQILCSRAYQQGDDSSLLYEQTKAYAKGRSAEQILIVPQNAEEGDGTDTLLKRVQTYIRNHYTERLTLADIAEAVHVSSSYLSRFYKLKAGENLFDTINSLRVEKAKELLLRGDKKIYEIAALTGFEDTAYFSKVFKKYAGCPPKEYEQSGGRNL” here?
A: not soluble

Q: For “MNYLLIDTSNQPLSVAIMKDNEVIAEKTTDIKKNHSVQLMPEIAEILTESKINKTEITDIVVAEGPGSYTGLRIGVTVAKTLAYALNTNLYGVSSLKALASTVKDSTKLLVPIFDARREAVYAGVYQYQDNELITIIDDTYIPIFELIEKLHQLNQPYVFVGFHIEKIKHLLDSDIVEQLPQASSMKQLIQKPENIHSFTPKYHKLSEAERNWLNQQENNLEHHHHHH”, which “soluble on expression in E. coli” value is on record?
A: not soluble

Q: With “SALSSAASLLGSPLTNDFAVISMSDLLTPLDTIMKRVEAFAKADIVTVIYNPRGSRFPDNIRKAVDIFLRYRNPETAVGIVRNAYRERQSVTITTLSNLNIEDIDMLTTVIIGNSETF” as the sequence, how does the “soluble on expression in E. coli” value read?
A: not soluble

Q: For “RPVREVGMYNMAMLMRSTGQSSFGQSVRIAENFLNEFPRSSHREQMAAILVESYFTGKDYNSSLRSIQKIAQPTASILAAKQFVLNRMAEQKEAAGYDSEALSFVSSSISMGNKGEYFPEAYFLRGNLRYRAGDFPTAAADYRAYISAAGDRDAANLPLGYYRLGYSLFNAERYDMALEAFKEYVSRSGIAPNLSADAYARIGDCRYMKRDFHGAREAYSMAYRVYPSGGDYALLRRARLEGLAKQYADQIQTLDKLIREFPDSRHLTAALYEKGCGAVLSGKHNVAEEAFNAVVKRSPDSREARQSSLQLGLLYYNTGRTKEAIRTYQRIIDRYPRSEETTVALSDLRSIYLEEDRIDEYSTYVRGLKDKVSIAPSETEQLGFLSAERKYRRRQPDARRDLEAYLERYPQGSDRHKAELYLADLDYQAGNADAAYNRYSRLVNSPGLPEDYKIDARLRLGRMQYERKEYKAALQSFQSVLDTDGAEAVRDQAVQGVTESAYADKDYRRVIDVIAGLKNQAALPHTLRLYRAKSYQALKMNREAIADYELLAEDFSTATGAEAVVMQAQLEMEAKRLSKAKSILEKFIAKSTPQQYWLARGFILLSDIYKKEGDTFTARQYLESLEKNYPNHEDDIHEQIAQRLE”, which “soluble on expression in E. coli” value is on record?
A: not soluble

Q: Which “soluble on expression in E. coli” value does the source give for “MGSDKIHHHHHHMTQITPQPGIMDIALYQGGAAHVDGVSNVTKLSSNENPLGPSPAAVEAMAEAAATMHRYPSSDHATLRAAIAETHGLDAERIICGAGSDEIIAFLCQCYAGPGDEVLYTEHGFAMYRISALAAGATPVEVKERERVTDVDALLAGCTAQTKLVFIANPNNPTGTMISEAEVARLADGIPEDAILVLDGAYAEYVEGFDAGAQLIAARHNVVMTRTFSKIYGLGGARVGWAYGPQEIIDVLNRVRGPFNVSTTALAGAEAAVRDTDYVQRCRLENAKWRGWLADQLAELGVPSDTSCTNFILARFASQSEAESCDDFLKQRGLIVRRVAGYNLPTALRITIGDETACRAVAAAVKDFKAGAAE” here?
A: not soluble

Q: For “MERIAFVYMGGDEFKWLFFEVYDRVRRFMKDVNLGIIPIYAGKIKLPPGMLVRVNAGNGYIKMYPFEAVVEALYGKLVEMRDDVKDDTLTKIFGITTFPIGSRKQYFDIYKKYLGIQVSIGNYNVLALSIKPFYTENRELFVERVFKGVLHEIGHLYGLSHCKNDCVMNPPNDLKDWDRRAPSYCNSCLRELKRKVKPMPLLLHRAYECFHC”, which “soluble on expression in E. coli” value is on record?
A: not soluble

Q: For “MGSDKIHHHHHHLRRLLNTLYVTTPDSYLAREGENILIRLEEKIVFRIPSHNIEAIVYFGYPGASPSLLGLCAEKGITVSFFSPNGRFLARVEGPQTGNVLLRRKQYRMADEENQVPVLAKYFIAAKILNSRAVLQRGRRDHPDKVGDSIERSIALLAGSVKKVFDSENLNDIRGLEGDAAQRYFSEVDNLILEQKQDFFMAARSRRPPLDNVNALLSFFYTLLVHECRAALESVGLDPAVGFLHRDRPGRPSLALDLMEELRPYLGDRMVLSLINRKQINKDDFITKENGAVYVLPDTRKMLLTVWQKRKQEEIIHPYLEEKIPIGLLPYTQALLLARFLRGDLDAYPAFIWK”, which “soluble on expression in E. coli” value is on record?
A: not soluble

Q: Which “soluble on expression in E. coli” value does the source give for “MRGSHHHHHHGMASMTGGQQMGRDLYDDDDKDHPFTMFYEKIQTPAYILEEDKLRKNCELLASVGEKSGAKVLLALKGFAFSGAMKIVGEYLKGCTCSGLWEAKFAKEYMDKEIHTYSPAFKEDEIGEIASLSHHIVFNSLAQFHKFQSKTQKNSLGLRCNVEFSLAPKELYNPCGRYSRLGIRAKDFENVDLNAIEGLHFHALCEESADALEAVLKVFEEKFGKWIGQMKWVNFGGGHHITKKGYDVEKLIALCKNFSDKYGVQVYLEPGEAVGWQTGNLVASVVDIIENEKQIAILDTSSEAHMPDTIIMPYTSEVLNARILATRENEKISDLKENEFAYLLTGNTCLAGDVMGEYAFDKKLKIGDKIVFLDQIHYTIVKNTTFNGIRLPNLMLLDHKNELQMIREFSYKDYSLRN” here?
A: soluble

Q: With “MDVFNRNAERYDAWYDRNRELYEAELELLPKPISPSVEVGVGTGRFAVIGIDLGVDVSLQMLRIAKKRGVECVAGDAAHLPFKDKSFRSAYLIFTLCFLDEPIKALMEIKRVLEGTLVACVVPANSGLGREYSGKDSSFYRKARFLTEDEVLSMLRETGFKVKEIRRRKLKYDENDFVCFIAES” as the sequence, how does the “soluble on expression in E. coli” value read?
A: not soluble

Q: With “NTLKAGQTQSFNDWFPDDNFASEVAAAFEMQATDTISEEQLATLTSLDCHNSSITDMTGIEKLTGLTKLICTSNNITTLDLSQNTNLTYLACDSNKLTNLDVTPLTKLTYLNCDTNKLTKLDVSQNPLLTYLNCARNTLTEIDVSHNTQLTELDCHLNKKITKLDVTPQTQLTTLDCSFNKITELDVSQNKLLNRLNCDTNNITKLDLNQNIQLTFLDCSSNKLTEIDVTPLTQLTYFDCSVNPLTELDVSTLSKLTTLHCIQTDLLEIDLTHNTQLIYFQAEGCRKIKELDVTHNTQLYLLDCQAAGITELDLSQNPKLVYLYLNNTELTELDVSHNTKLKSLSCVNAHIQDFSSVGKIPALNNNFEAEGQTITMPKETLTNNSLTIAVSPDLLDQFGNPMNIEPGDGGVYDQATNTITWENLSTDNPAVTYTFTSENGAIVGTVTTPFEAPQPIK” as the sequence, how does the “soluble on expression in E. coli” value read?
A: soluble

Q: With “MSLQRPVMLLSDDDSEVRRLVYDSLDRLGCEMEEPDNGEQALAAFRRIQPEIVLLDLAMTQADAFELCASLHGARGGERVSILAVAGRGDLEGVRRAIDAGATDFLIHPVDVEMLGLRLSCGRRSAQTRERLSRNEERNRGLIKGIPHLVLQISKEGTVLDFEAPRDFDLRQFPDGLRGRRIQDVFFADAPYVIVRCIERVIETAESQVLEHNVRIGNDIHVYETRILPNAEGEPTVVMRDVTERRKMEKEGHHHHHH” as the sequence, how does the “soluble on expression in E. coli” value read?
A: soluble

Q: Which “soluble on expression in E. coli” value does the source give for “MSLIKMQVWKKLFAKSPFKPLIRHAEVVVQTVETLEKALDSWARGDYENMKEYAKKVDDLEDIADKIKSELRDSITSKLLMPVQRTDILEYLHMQDKIADAAEDTAKWLLIKRNLDSIPNDIKDIILKMGKESIKAAKLVYEAIKQLDNVLESGFAEKEIKKEYKIIKQIEEVESKIDGLDSKLMEIVFTSELDWKDGLYILNIARTLSNISDKAKDTAERIRVLMNKEGHHHHHH” here?
A: not soluble

Q: For “MAHHHHHHMSSDTMPFKLVEPFVLFHTIFSDDFQHPQVAMITQACGSHSTASNQSTSHFLQIFFDFPLHVEPNEAPTDLIFLCKWGTSHSSHTPPHGNDVNVTRTNFLFRQCSQKKSATDY”, which “soluble on expression in E. coli” value is on record?
A: not soluble
